The record followed here is US20190336589A1, “IMMUNIZING PEPTIDE, METHOD FOR PRODUCING IMMUNIZING PEPTIDE, PHARMACEUTICAL COMPOSITION FOR IMMUNE DISEASE CONTAINING SAME, AND METHOD FOR TREATING IMMUNE DISEASE” (OSAKA UNIVERSITY, priority 2015, published 2019).

In assay [1] the target is T1, 3A9 TCR / complex of HEL antigen and I-A^k on LK35.2 cells (Mus musculus, UniProt P01910+P06343).
T1 construct: LK35.2 cells expressing I-A^k (the MHC class II molecule); endogenous in cells; host or cells: LK35.2 cells (I-A^k); the 3A9 scTCR-Fc is culture supernatant of transfected 293T cells
The assay is described as follows: Immunization of mice with HEL protein or HEL peptides; serum inhibition of soluble single-chain 3A9 TCR binding to HEL protein-pulsed LK35.2 cells. It is filed as in vivo, mice (B10.A strain). The settings on record: immunogen with CFA subcutaneously; serum two weeks after administration. The method, then: 30 nmol of the HEL peptide 41-70 or the HEL peptide 48-61 was mixed with a complete Freund's adjuvant. Each of the thus-obtained mixture was administered subcutaneously to mice (B10.A strain). Two weeks after the administration, whole blood was collected from each mouse, and serum was collected from the whole blood.
LK35.2 cells were pulsed with the HEL protein in the same manner as in the item (2) in Example 1B, except that the HEL protein was added instead of the HEL protein, the HEL peptide 41-70, and the HEL peptide 48-61. The cultured LK35.2 cells were collected from the wells. Thereafter, the collected LK35.2 cells were used in inhibition of TCR recognition by an antibody to be described below.
Flow cytometry analysis was performed in the same manner as in the item (3) in Example 1B, except that serums of the HEL peptide 41-70-immunized mice or serums of the HEL peptide 48-61-immunized mice were used in addition to the serums of the HEL protein-immunized mice and that the LK35.2 cells obtained in the item (1) in Example 2B were used instead of the LK35.2 cells obtained in the item (2) in Example 1B. As Control 1, the flow cytometry analysis was performed in the same manner, except that serums collected from non-immunized mice were used instead of the serums of the HEL protein-immunized mice, the serums of the HEL peptide 41-70-immunized mice, and the serums of the HEL peptide 48-61-immunized mice. As Control 2, the flow cytometry analysis was performed in the same manner, except that the HEL protein was not added.
30 nmol of the HEL peptide 48-77 (Y53A L56A) was mixed with a complete Freund's adjuvant, and the resultant mixture was administered subcutaneously to mice (B10.A strain). Two weeks after the administration, whole blood was collected from each mouse, and serum was collected from the whole blood.
Flow cytometry analysis was performed in the same manner as in the item (3) in Example 1B, except that serums of the HEL peptide 48-77 (Y53A L56A)-immunized mice were used in addition to the serums of the HEL protein-immunized mice and that the LK35.2 cells obtained in the item (2) in Example 4 were used instead of the LK35.2 cells obtained in the item (2) in Example 1B. As controls, the flow cytometry analysis was performed in the same manner, except that serums collected from non-immunized mice were used instead of the serums of the HEL protein-immunized mice and the serums of the HEL peptide 48-77 (Y53A L56A)-immunized mice.

Assay [2] addresses T1, 3A9 TCR / complex of HEL antigen and I-A^k on LK35.2 cells. Kind of assay: Inhibition of TCR recognition by antibody: binding of soluble single-chain 3A9 TCR to antigen-pulsed LK35.2 cells after reaction with serum. The settings on record: cells reacted with serums of HEL-immunized mice, diluted 10-fold. The text has this:
From 3A9 T cell hybridomas (obtained from Laboratory of Vaccine Materials, National Institutes of Biomedical Innovation) expressing a TCR that recognizes a complex of a peptide consisting of the amino acid sequence of SEQ ID NO: 1 (the T-cell epitope) and I-A^k (the MHC class II molecule), the TCR was cloned. Specifically, from cDNA derived from the 3A9 T cell hybridomas, a polynucleotide encoding the following α-chain and β-chain of 3A9 TCR linked by a GGGGS linker was cloned into a pME18S vector. Thus, a 3A9 TCR expression vector was produced. The vector was designed so that the Fc domain of human IgG is added to the C terminus of an expressed protein. Thus, by introducing the expression vector to a host, a soluble single-chain TCR composed of 3A9 TCR and Fc bound thereto is expressed (3A9 scTCR-Fc).
Next, the 293 T cells were cultured for 96 hours under the same 30 culture conditions as in the item (1) in Example 1A, except that the 3A9 TCR expression vector was introduced instead of the I-A^k c expression vector and the I-A^k f expression vector. After the culture, the supernatant was collected, and the collected supernatant was used as the soluble single-chain TCR.
LK35.2 cells expressing I-A^k (the MHC class II molecule) were seeded in a 24-well plate at a density of 1×10^5 cells/1 ml/well. Next, the HEL protein was added to the wells at a concentration of 200 μg/ml, or the HEL peptide 41-70 or the HEL peptide 48-61 was added to the wells at a concentration of 20 μmol/l. The LK35.2 cells were pulsed with the HEL protein or the HEL peptide by culturing the HEL protein-added group for another 48 hours and the HEL peptide added groups for another 24 hours under the above-described culture conditions. The cultured LK35.2 cells were collected from the wells. Thereafter, the collected LK35.2 cells were used in inhibition of TCR recognition by an antibody to be described below.
Serum collected from each of the HEL protein-immunized mice was diluted 10-fold with HBSS to obtain a diluted serum. Next, 10 μl of the diluted serum was added to the LK35.2 cells obtained in the above item (2) to cause a reaction. Further, a dimer of 20 μl of the supernatant obtained in the above item (1) and 10 μl of an APC-labeled anti-human IgG Fc antibody (code number: 109-136-098, Jackson ImmunoResearch) diluted 100-fold was formed beforehand, and the LK35.2 cells after the reaction were reacted with the dimer. Then, the LK35.2 cells were analyzed by flow cytometry. As Control 1, the flow cytometry analysis was performed in the same manner, except that serums collected from non-immunized mice were used instead of the serums of the HEL protein-immunized mice. […]

T1 sequence (P01910 24-256): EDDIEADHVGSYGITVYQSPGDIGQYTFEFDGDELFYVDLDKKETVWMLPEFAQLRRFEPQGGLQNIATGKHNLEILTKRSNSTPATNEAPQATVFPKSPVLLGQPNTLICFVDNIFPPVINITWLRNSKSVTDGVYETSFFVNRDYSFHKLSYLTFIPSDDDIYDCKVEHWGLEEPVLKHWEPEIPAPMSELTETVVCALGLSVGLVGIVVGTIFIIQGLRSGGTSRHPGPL
T1 sequence (P06343 28-263): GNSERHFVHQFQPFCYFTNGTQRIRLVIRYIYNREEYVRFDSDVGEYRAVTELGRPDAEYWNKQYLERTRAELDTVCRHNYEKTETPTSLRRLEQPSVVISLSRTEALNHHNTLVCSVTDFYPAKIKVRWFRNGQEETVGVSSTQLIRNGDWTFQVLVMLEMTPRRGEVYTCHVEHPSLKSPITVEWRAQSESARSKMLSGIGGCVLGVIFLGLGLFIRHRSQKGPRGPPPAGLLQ

With “DGSTDYGILQINSR (Gallus gallus domesticus) [HEL peptide 48-61, reference compound]”, in assay [1], the “binding of soluble single-chain TCR to LK35.2 cells pulsed with HEL protein after reaction with serums of mice immunized with the substance” value was “observed”. Moreover, the “binding of soluble single-chain TCR to LK35.2 cells pulsed with the antigen” value in assay [2] is on record as “observed”.
With “QATNRNTDGSTDYGILQINSRWWCNDGRTP (Gallus gallus domesticus) [HEL peptide 41-70]”, in assay [1], the “binding of soluble single-chain TCR to LK35.2 cells pulsed with HEL protein after reaction with serums of mice immunized with the substance” value is on record as “not observed”. In addition, the “binding of soluble single-chain TCR to LK35.2 cells pulsed with the antigen” value in assay [2] is reported as “not observed”.
